The DeepSol protein solubility set

Test: soluble on expression in E. coli; label from the status in PepcDB or PDB records

| Sequence | soluble on expression in E. coli |
| --- | --- |
| GSHMQTPKETLSERLSALQDKIIDHYENDSKDIDSQIQYWQLIRWENAIFFAAREHGIQTLNHQVVPAYNISKSKAHKAIELQMALQGLAQSAYKTEDWTLQDTCEELWNTEPTHCFKKGGQTVQVYFDGNKDNCMTYVAWDSVYYMTDAGTWDKTATCVSHRGLYYVKEGYNTFYIEFKSECEKYGNTGTWEVHFGNNVIDCNDSMCSTSDDTVSAT | soluble |
| GSHMSHDGKEEPGIAKKINSVDDIIIKCQCWVQKNDEERLAEILSINTRKAPPKFYVHYVNYNKRLDEWITTDRINLDKEVLYPKLKATDED | soluble |
| GSHMVTIVRIYLDGVYGIGKSTTGRVMASAASGGSPTLYFPEPMAYWRTLFETDVISGIYDTQNRKQQGNLAVDDAALITAHYQSRFTTPYLILHDHTCTLFGGNSLQRGTQPDLTLVFDRHPVASTVCFPAARYLLGDMSMCALMAMVATLPREPQGGNIVVTTLNVEEHIRRLRTRARIGEQIDITLIATLRNVYFMLVNTCHFLRSGRVWRDGWGELPTSCGAYKHRATQMDAFQERVSPELGDTLFALFKTQELLDDRGVILEVHAWALDALMLKLRNLNVFSADLSGTPRQCAAVVESLLPLMSSTLSDFDSASALERAARTFNAEMGV | soluble |
| GSMKPMGPNDYMVIGLARIDDRLIHGQVATRWTKETNVSRIIVVSDEVAADTVRKTLLTQVAPPGVTAHVVDVAKMIRVYNNPKYAGERVMLLFTNPTDVERLVEGGVKITSVNVGGMAFRQGKTQVNNAVSVDEKDIEAFKKLNARGIELEVRKVSTDPKLKMMDLISKIDK | soluble |
| GSMSLNDFLSSVLPVSEQFEYLSLQSIPLETHAVVTPNKDDKRVPKSTIKTQHFFSLFHQGKVFFSLEVYVYVTLWDEADAERLIFVSKADTNGYCNTRVSVRDITKIILEFILSIDPNYYLQKVKPAIRSTCPREILTKICLFTRPASQYLFPDSSKNSKKHILNGEELMKWWGFILDRLLIECFQNDTQAKLRIPGEDPARVRSYLRGMKYPLWQVGDIFTSKENSLAVYNIPLFPDDPKARFIHQLAEEDRLLKVSLSSFWIELQERQEFKLSVTSSVMGISGYSLATPSLFPSSADVIVPKSRKQFRAIKKYITGEEYDTEEGAIEAFTNIRDFLLLRMATNLQSLTGKREHRERNQPVPASNINTLAITMLKPRKKAKALPKT | soluble |
| GSPALDTGTTEEDRLKIDVIDWLVFDPAQRAEALKQGNAIMRKFLASKKHEAAKEVFVKIPQDSIAEIYNQCEEQGMESPLPAEDDNAIREHLCIRAYLEAHETFNEWFKHMNSVPQKPALIPQPTFTEKVAHEHKEKKYEMDFGIWKGHLDALTADVKEKMYNVLLFVDGGWMVDVREDAKEDHERTHQMVLLRKLCLPMLCFLLHTILHSTGQYQECLQLADMVSSERHKLYLVFSKEELRKLLQKLRESSLMLLDQGLDPLGYEIQLSGRIVTD | soluble |
| GSPEFKTIDASVSKKAADSTSQCGKATGSDSSGVIDLTMDDEESGASQD | soluble |
| GSPELGFSISGGVGGRGNPFRPDDDGIFVTRVQPEGPASKLLQPGDKIIQANGYSFINIEHGQAVSLLKTFQNTVELIIVREVGNGAKQEIRVRVEKDGGSGGVSSVPTNLEVVAATPTSLLISWDAYRELPVSYYRITYGETGGNSPVQEFTVPGSKSTATISGLKPGVDYTITVYAHYNYHYYSSPISINYRT | soluble |
| GSPGISGGGGGILMDVNVGLSRLQSQAGAPVGTKGSNTRLAAKQRETLQAYDYLCRVDEAKKWIEECLGTDLGPTSTFEQSLRNGVVLALLVQKFQPDKLIKIFYSNELQFRHSDNINKFLDFIHGIGLPEIFHFELTDIYEGKNLPKVIYCIHALSYFLSMQDLAPPLIKSDENLSFTDEDVSIIVRRLRQSNVILPNFKAL | soluble |
| GSPGLKGDKGIPGDKGAKGESGLPDVASLRQQVEALQGQVQHLQAAFSQYKKVELFPNGQSVGEKIFKTAGFVKPFTEAQLLCTQAGGQLASPRSAAENAALQQLVVAKNEAAFLSMTDSKTEGKFTYPTGESLVYSNWAPGEPNDDGGSEDCVEIFTNGKWNDRACGEKRLVVCEF | soluble |
| GSRPGPASQLPRFVRVNTLKTCSDDVVDYFKRQGFSYQGRASSLDDLRALKGKHFLLDPLMPELLVFPAQTDLHEHPLYRAGHLILQDRASCLPAMLLDPPPGSHVIDACAAPGNKTSHLAALLKNQGKIFAFDLDAKRLASMATLLARAGVSCCELAEEDFLAVSPSDPRYHEVHYILLDPSCSGSGMPSRQLEEPGAGTPSPVRLHALAGFQQRALCHALTFPSLQRLVYSTCSLCQEENEDVVRDALQQNPGAFRLAPALPAWPHRGLSTFPGAEHCLRASPETTLSSGFFVAVIERVEVPRRARG | soluble |
| GSSHHHHHHSSGLVPRGSHMRIVFDIGGSVLVPENPDIDFIKEIAYQLTKVSEDHEVAVVVGGGKLARKYIEVAEKFNSSETFKDFIGIQITRANAMLLIAALREKAYPVVVEDFWEAWKAVQLKKIPVMGGTHPGHTTDAVAALLAEFLKADLLVVITNVDGVYTADPKKDPTAKKIKKMKPEELLEIVGKGIEKAGSSSVIDPLAAKIIARSGIKTIVIGKEDAKDLFRVIKGDHNGTTIEP | soluble |
| GSTPITGPHIAYTEAVSDTQIMLKWTYIPSSNNNTPIQGFYIYYRPTDSDNDSDYKRDVVEGSKQWHMIGHLQPETSYDIKMQCFNEGGESEFSNVMICETK | soluble |
| GSVSPTFQVVNSFAPVQECSTQLDIVIVLDGSNSIYPWESVIAFLNDLLKRMDIGPKQTQVGIVQYGENVTHEFNLNKYSSTEEVLVAANKIVQRGGRQTMTALGIDTARKEAFTEARGARRGVKKVMVIVTDGESHDNYRLKQVIQDCEDENIQRFSIAILGHYNRGNLSTEKFVEEIKSIASEPTEKHFFNVSDELALVTIVKALGERIFALEALERPHRD | soluble |
| GTEDTFWKDETDFNLALTSCYTPLKNALNGGYYGTRGVMLRIARADEVDFRNDISDVYTVNRFTNSNTNSLTQGMFYQFYNALYRTNSIMQKLEEKKEQFSTDFQNSVKGECLFIRGFYLFQLAKEFKDAPLRLTASQSPSTFPLAKSSQADIWAQAKEDLKTAASLLPITNKIGKPTQGAAYAALGKIYVYEENWQEAINVLEPLTQNPYTYKLVEDFNWNFDDTHENNAESIFELLIEDVGGTDLWGDGENINSTQSNTRPKEYAAAEVGGWYEANPTQQIMDIFWKEKDKDGNFDYRARCSVAWDYEGCTYYQRPFREVFAQDKWKTYWILKYQNWKTQKDEPAPPKSFINERAIRYADVLLMLAEAYMNKGALDTSIGYINQIRRRANLNDYSGPITKEGVFEDLVHQRAIEFFVEGERFYDLRRWGLLEQTLKTCDDTRYKNYQTGKSDNINKFNYFPIPAKELDTNPLCTPSEGW | soluble |
| GTENLYFQGMSDVIEGRLKELGFTLPVAAAPAANYVPFTISGNLLYVSGQLPMESGKIAVTGLVGRDVDVASAQRAAELCAVNILAQVKAALNGDLSKIRRVIKLNGFVASVPEFVEQHLVINGASNLIATVLGEPGRHARAAVGMASLPFNASVEIDAIVEIDV | soluble |
| GTGRSRLLEDFRNNRFPNLQLRDLIGHIVEFSQDQHGSRFIQQKLERATPAERQIVFNEILQAAYQLMTDVFGNYVIQKFFEFGSLDQKLALATRIRGHVLPLALQMYGCRVIQKALESISSDQQSEMVKELDGHVLKCVKDQNGNHVVQKCIECVQPQSLQFIIDAFKGQVFVLSTHPYGCRVIQRILEHCTAEQTLPILEELHQHTEQLVQDQYGNYVIQHVLEHGRPEDKSKIVSEIRGKVLALSQHKFASNVVEKCVTHASRAERALLIDEVCCQNDGPHSALYTMMKDQYANYVVQKMIDMAEPAQRKIIMHKIRPHITTLRKYTYGKHILAKLEKYYLKNSPDLG | soluble |
| GTVEGVVGVTREVTEQRKHEMEIARQRSILKAQQEAVIDGILVVDEDDTIVSYNERFVDMWDIPRDIVERGDEEIALEWAMEQVAEPEAFRVDVEALYEDPETTARDELELADGRVFDRYTAPVVAEDGTRFGRLWAFRD | not soluble |
| GYCGPCPNNWICHRNNCYQFFNEEKTWNQSQASCLSQNSSLLKIYSKEEQDFLKLVKSYHWMGLVQIPANGSWQWEDGSSLSYNQLTLVEIPKGSCAVYGSSFKAYTEDCANLNTYICMKRAV | soluble |
